Results from patent US20200048332A1 (BIOVERATIV USA, published 2020).
Substitutions are numbered along the chain they refer to.

T1: activated C1s (human, UniProt P09871 16-688)
T1 sequence: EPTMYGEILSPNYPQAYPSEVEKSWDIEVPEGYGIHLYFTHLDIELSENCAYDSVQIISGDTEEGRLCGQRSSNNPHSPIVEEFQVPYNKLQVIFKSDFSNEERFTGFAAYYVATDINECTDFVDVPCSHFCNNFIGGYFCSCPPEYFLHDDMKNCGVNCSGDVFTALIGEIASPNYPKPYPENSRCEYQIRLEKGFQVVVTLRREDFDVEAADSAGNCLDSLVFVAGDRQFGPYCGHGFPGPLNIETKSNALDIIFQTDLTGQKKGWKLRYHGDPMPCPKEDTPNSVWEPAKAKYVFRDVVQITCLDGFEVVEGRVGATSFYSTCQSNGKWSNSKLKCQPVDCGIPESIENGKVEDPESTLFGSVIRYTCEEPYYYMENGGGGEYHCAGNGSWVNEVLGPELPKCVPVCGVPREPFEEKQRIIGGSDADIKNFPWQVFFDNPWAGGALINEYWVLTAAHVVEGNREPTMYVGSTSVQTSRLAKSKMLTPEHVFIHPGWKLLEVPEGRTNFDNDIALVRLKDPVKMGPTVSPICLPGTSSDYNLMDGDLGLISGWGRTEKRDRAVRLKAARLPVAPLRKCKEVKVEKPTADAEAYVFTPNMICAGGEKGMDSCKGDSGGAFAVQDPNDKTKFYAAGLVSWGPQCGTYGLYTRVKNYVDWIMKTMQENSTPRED

B1: murine anti-activated C1s antibody (antibody, V domains shown)
VH: EVQLQQSGAELVRPGASVKLSCTASGFNIKDDYIHWVKQRPEQGLEWIGRIDPADGHTKYAPKFQVKATITADTSSNTAYLQLSSLTSEDTAVYYCARYGYGREVFDYWGQGTTLTVSS
VL: DIVLTQSPASLAVSLGQRATISCKASQSVDYDGDSYMNWYQQKTGQPPKILIYDASNLESGIPARFSGSGSGTDFTLNIHPVEEEDAAIYYCQQSNEDPWTFGGGTKLEIK
B2: humanized VH3/Vk2 (antibody, V domains shown)
VH: QVQLVQSGAEVKKPGASVKLSCTASGFNIKDDYIHWVKQAPGQGLEWIGRIDPADGHTKYAPKFQVKVTITADTSTSTAYLELSSLRSEDTAVYYCARYGYGREVFDYWGQGTTVTVSS
VL: B1 VL with A9D, Q17E, T44P, N78T, H80S, P81S, V82L, E84P, A87F, L108V
B3: humanized VH1/Vk1 (antibody, V domains shown)
VH: B2 VH with Q1E, V11L, V68A, S77N, E82Q, R87T
VL: B1 VL with A9D, Q17E, N78T, H80S, P81S, V82L, A87F, L108V
B4: humanized VH1/Vk2 (antibody, V domains shown)
VH: B2 VH with Q1E, V11L, V68A, S77N, E82Q, R87T
VL: B1 VL with A9D, Q17E, T44P, N78T, H80S, P81S, V82L, E84P, A87F, L108V
B5: humanized VH4/Vk1 (antibody, V domains shown)
VH: B2 VH with L20V, K38R, L81M
VL: B1 VL with A9D, Q17E, N78T, H80S, P81S, V82L, A87F, L108V
B6: humanized VH3/Vk1 (antibody, V domains shown)
VH: B2 VH
VL: B1 VL with A9D, Q17E, N78T, H80S, P81S, V82L, A87F, L108V
B7: humanized VH3/Vk5 (antibody, V domains shown)
VH: B2 VH
VL: DIVLTQSPDSLAVSLGERATISCKASQSVDYDGDSYMNWYQQKPGQPPKLLIYDASNLESGIPARFSGSGSGTDFTLTISSLEPEDFAVYYCQQSNEDPWTFGGGTKVEIK
B8: humanized VH4/Vk5 (antibody, V domains shown)
VH: B2 VH with L20V, K38R, L81M
VL: B7 VL
B9: humanized VH5/Vk1 (antibody, V domains shown)
VH: B2 VH with L20V, T23A, K38R, L81M
VL: B7 VL with P44T, L50I, P84E, V89I
B10: humanized VH4/Vk2 (antibody, V domains shown)
VH: B2 VH with L20V, K38R, L81M
VL: B7 VL with L50I, V89I
B11: humanized VH5/Vk5 (antibody, V domains shown)
VH: B2 VH with L20V, T23A, K38R, L81M
VL: B7 VL
B12: humanized VH1/Vk5 (antibody, V domains shown)
VH: B2 VH with Q1E, V11L, V68A, S77N, E82Q, R87T
VL: B7 VL
B13: humanized VH5/Vk2 (antibody, V domains shown)
VH: B2 VH with L20V, T23A, K38R, L81M
VL: B7 VL with L50I, V89I
B14: humanized VH2/Vk5 (antibody, V domains shown)
VH: B2 VH with Q1E, V68A, S77N
VL: B7 VL
B15: humanized VH2/Vk1 (antibody, V domains shown)
VH: B2 VH with Q1E, V68A, S77N
VL: B7 VL with P44T, L50I, P84E, V89I
B16: VH3/VK2-Fc-sub4 (antibody, human IgG4 S228P, kappa, V domains shown)
VH: B2 VH
VL: DIVLTQSPDSLAVSLGERATISCKASQSVDYDGDSYMNWYQQKPGQPPKILIYDASNLESGIPARFSGSGSGTDFTLTISSLEPEDFAIYYCQQSNEDPWTFGGGTKVEIKR
notes: Humanized IgG4; also called TNT020; humanized anti-aC1s variant VH3/VK2-Fc-sub4

Each binder was assayed against T1, activated C1s (assay: cell-based or functional assay).

Binder	IC50 of classical complement pathway inhibition ('Classical Pathway Inhibition', IC50 (M)) [M]
B1	1.06e-09
B2	1.26e-09
B3	1.2e-09
B4	1.14e-09
B5	1.35e-09
B6	1.27e-09
B7	1.38e-09
B8	1.54e-09
B9	1.08e-09
B10	1.31e-09
B11	1.33e-09
B12	1.26e-09
B13	1.33e-09
B14	1.27e-09
B15	1.23e-09

What follows are binders tested against T1, activated C1s (assay: method not stated; dissociation constant for active C1s).

Binder	Kd [nM]
B16	1.53
